The values that follow come from patent publication US20030064943A1.

In the assay the target is human transforming growth factor β2 (TGFβ2) (human) (UniProt P61812). In words: cell-based or functional assay.
Chain of human transforming growth factor β2 (TGFβ2) (human) (P61812 303-414): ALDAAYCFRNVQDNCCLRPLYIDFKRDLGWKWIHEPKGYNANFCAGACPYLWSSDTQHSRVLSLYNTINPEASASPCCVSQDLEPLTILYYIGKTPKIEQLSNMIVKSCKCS

Turning to latency associated peptide (LAP), the Ki, reversal of TGFβ2-mediated inhibition of 3H-thymidine incorporation in mink lung epithelial cells worked out at 0.5 nM.
